Among the data in US20240383993A1 are Max (MFI) and EC50 values, retold here.

The target in assay [1] is human 4-1BB expressed on cells (human) (UniProt Q07011). Nature of the assay: flow cytometry on CHO-K1/hu4-1BB cells, anti-human Fc-Alexa Fluor 633.
Assay [2] deals with His-tagged cynomolgus 4-1BB protein (cynomolgus) (UniProt A9YYE7). Kind of assay: ELISA, coated His-tagged 4-1BB, anti-human IgG-HRP. On the technique in general: In an ELISA, binding on a coated surface is turned into a signal by an enzyme label.
Chain of His-tagged cynomolgus 4-1BB protein (cynomolgus) (A9YYE7 entry or part of it): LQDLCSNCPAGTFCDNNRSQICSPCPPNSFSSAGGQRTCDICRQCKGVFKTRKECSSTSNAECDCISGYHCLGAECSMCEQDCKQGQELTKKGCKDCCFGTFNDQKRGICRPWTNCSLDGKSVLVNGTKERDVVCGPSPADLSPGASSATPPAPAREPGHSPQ

Chain of human 4-1BB expressed on cells (human) (Q07011 24-255): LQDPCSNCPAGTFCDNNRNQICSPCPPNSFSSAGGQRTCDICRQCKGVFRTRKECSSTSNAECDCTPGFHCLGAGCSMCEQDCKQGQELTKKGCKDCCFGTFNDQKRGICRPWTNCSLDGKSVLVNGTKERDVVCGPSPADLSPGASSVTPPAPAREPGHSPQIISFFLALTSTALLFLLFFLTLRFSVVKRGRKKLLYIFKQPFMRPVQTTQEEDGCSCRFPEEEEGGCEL

B1: VV02-1SP (1)-73 huNb_1_1 (Fc fusion, not shown: a dimerising Fc or GST)
VHH: EVQLLESGGGLVQPGGSLRLSCAASGFTFSSSAMSWARQAPGKGLEWVSSIYSSGKTYYVESVKGRFTISRDNSKNTLYLQMNSLRAEDTAVYYCAKWKTLRVGVWDESDYWGQGTLVTVSS
B1 displayed a Max (MFI) in assay [1] of 233 MFI.

B2: VV02-1LP-288 (Fc fusion, not shown: a dimerising Fc or GST; small tags and cut ends)
VHH: EVQVVESGGGLVQPGGSLRLSCAASGSSLDYSAIGWFRQAPGKEREGVLCISSSGDVTIYADSVKGRFTISRDNAKNTVYLQMNSLKPEDTAVYYCVAPRICSTYSSDDYWGQGTQVTVSS
The EC50 is the concentration that produces a half-maximal response. Low values mean greater potency, high ones weaker potency. B2: in assay [2], the 50% effective concentration (EC50) was above 30 nM.

B3: VV02-1LP-417 (Fc fusion, not shown: a dimerising Fc or GST; small tags and cut ends)
VHH: QLQLVESGGGLVQPGGSLRLSCAASGFALDYSAIGWFRQAPGKEREGVLCISSSGDVTIYADSVKGRFTISRDNAKNTVYLQMNSLKPEDTAVYYCVAPRICSTYSSDDYWGQGTQVTVSS
As to B3, the EC50 in assay [2] was above 30 nM.
